Reference: article PMC3313673

Target: extracellular domain of quail MuSK (amino acid residues 1 to 463), His-tagged (quail)
Test: ELISA

B1: biotinylated recombinant biglycan (non-glycanated form) (ligand)
chain: DEEASGADTSGVLDPDSVTPTYSAMCPFGCHCHLRVVQCSDLGLKSVPKEISPDTTLLDLQNNDISELRKDDFKGLQHLYALVLVNNKISKIHEKAFSPLRKLQKLYISKNHLVEIPPNLPSSLVELRIHDNRIRKVPKGVFSGLRNMNCIEMGGNPLENSGFEPGAFDGLKLNYLRISEAKLTGIPKDLPETLNELHLDHNKIQAIELEDLLRYSKLYRLGLGHNQIRMIENGSLSFLPTLRELHLDNNKLARVPSGLPDLKLLQVVYLHSNNITKVGVNDFCPMGFGVKRAYYNGISLFNNPVPYWEVQPATFRCVTDRLAIQFGNYKK
modifications: biotin (site not stated)
- signal of the plate assay (read at 415 nm): 0.45
